The source of these data is article PMC6770530, “Tumor Uptake of Triazine Dendrimers Decorated with Four, Sixteen, and Sixty-Four PSMA-Targeted Ligands: Passive versus Active Tumor Targeting” (Biomolecules, 2019).

Read-outs that look alike come from different tables or passages of the source.

Data set [1] concerns the target T1, PSMA (Homo sapiens, UniProt Q04609).
T1 construct: expressed in transfected cells; host or cells: PC3-PIP cells (PSMA positive)
On the set-up: method as in PMID 15027864, PMID 25822623. The note with it: cited from earlier work.

Another data set has as its system PC3-PIP cells. Put plainly: Internalization of 64Cu-labeled dendrimers in PC3-PIP cells. The data set is classed as cell-based. The settings on record: 64Cu-labeled dendrimer, incubation 1-120 min. The procedure: The PC3-PIP cells were used for the internalization study. The 12-well plates containing ~2.0 × 10^5 cells were incubated overnight in a humidified incubator at 37 °C with 5% CO2 and then washed with binding buffer (20 mM Tris, 150 mM NaCl, pH 7.4). Each solution of ^64Cu-labeled dendrimers (~6.0 × 10^5 CPM) in 0.4 mL of binding buffer was incubated with the cells for 1, 10, 30, 60, and 120 min, respectively, and then washed once with ice-cold binding buffer. The surface bound ^64Cu-labeled dendrimers were removed by incubating cells twice for 5 min with 0.5 mL of ice-cold low pH stripping buffer (150 mM NaCl, 50 mM glycine, pH 3.0) and collected in a culture tube. After incubation with 0.5 mL of 4 M NaOH at 37 °C for 15 min, the NaOH-solubilized cells were collected in separate culture tubes. The radioactivity of surface bound/internalized ^64Cu-labeled dendrimers was counted on a 2480 automatic gamma counter (PerkinElmer).

The test system of data set [2] is PC3-PIP (PSMA positive) and PC3-FLU (PSMA negative) cells. Briefly: Cell uptake of 64Cu-labeled dendrimers in PC3-PIP and PC3-FLU cells. It counts as cell-based. The settings on record: 64Cu-labeled dendrimer, 1 h at 37 °C, n = 3. On the procedure:
Cell uptake experiments were conducted in the PSMA positive PC3-PIP cell lines and the PSMA negative PC-FLU cell lines. The cells (5.0 × 10^5) were seeded to a 6-well plate and incubated at 37 °C overnight in a humidified incubator with 5% CO2. After being rinsed with binding buffer (20 mM Tris, 150 mM NaCl, pH 7.4), the cells in binding buffer (500 µL) were incubated at 37 °C with ~6.0 × 10^5 CPM of ^64Cu-labeled dendrimers for 1 h, washed with cold binding buffer, and then trypsinized. The radioactivity of trypsinized cells was counted on a 2480 automatic gamma counter (PerkinElmer).

Data set [3] is described as follows: Serum stability assay of 64Cu-labeled dendrimers. The data set is classed as in vitro ADME, rat. On the procedure:
The stability of ^64Cu-labeled dendrimers was evaluated in rat serum. […] An aliquot of sample (10 µL) was mixed with 5 mM EDTA (100-fold molar excess) and incubated at 37 °C for 10 min. The resulting solution was analyzed by a Rita Star Radioisotope TLC Analyzer.

On the set-up of data set [4]: method as in PMID 23398590. The note with it: estimated by dynamic light scattering of unfunctionalized analogues; cited from earlier work.
The conditions of data set [5]: mouse, in vivo, iv, 64Cu-labeled dendrimer; for tissue uptake at 1 h: 1 h p.i.; for tissue uptake at 4 h: 4 h p.i.
For data set [6], the system named is SCID mice bearing PC3-PIP and PC3-FLU xenografts. The settings on record: 64Cu-labeled dendrimer, i.v., 4 h p.i.
Data set [7] deals with T1, PSMA. Put plainly: Competitive cell-binding assay with 125I-labeled PSMA radioligand in PC3-PIP cells. The settings on record: read-out: IC50 (displacing 50% of the 125I-labeled PSMA radioligand bound to PC3-PIP cells), room temperature 2 h, n = 4. On the procedure: A reported PSMA ^125I-radioligand [21] was used as a PSMA-specific radioligand in the assay. PC3-PIP cells were suspended in Tris-buffered saline (TBS) and seeded on multiwell DV plates (Millipore) with 5 × 10^4 cells per well. […] The unbound ^125I-radioligand was removed by filtration. The wells were rinsed five times with cold TBS buffer. The filters were then collected and their radioactivity was measured on a 2480 automatic gamma counter (PerkinElmer).

Setting [8] is: In vivo organ uptake, Left Kidney.
Setting [9] is: In vivo organ uptake, Right Kidney.
Where [10] appears, read: In vivo tumor uptake, PC3-FLU, PSMA negative xenograft right shoulder.
Setting [11] is: In vivo tumor uptake, PC3-PIP, PSMA positive xenograft left shoulder.

T1 sequence (Q04609 whole entry): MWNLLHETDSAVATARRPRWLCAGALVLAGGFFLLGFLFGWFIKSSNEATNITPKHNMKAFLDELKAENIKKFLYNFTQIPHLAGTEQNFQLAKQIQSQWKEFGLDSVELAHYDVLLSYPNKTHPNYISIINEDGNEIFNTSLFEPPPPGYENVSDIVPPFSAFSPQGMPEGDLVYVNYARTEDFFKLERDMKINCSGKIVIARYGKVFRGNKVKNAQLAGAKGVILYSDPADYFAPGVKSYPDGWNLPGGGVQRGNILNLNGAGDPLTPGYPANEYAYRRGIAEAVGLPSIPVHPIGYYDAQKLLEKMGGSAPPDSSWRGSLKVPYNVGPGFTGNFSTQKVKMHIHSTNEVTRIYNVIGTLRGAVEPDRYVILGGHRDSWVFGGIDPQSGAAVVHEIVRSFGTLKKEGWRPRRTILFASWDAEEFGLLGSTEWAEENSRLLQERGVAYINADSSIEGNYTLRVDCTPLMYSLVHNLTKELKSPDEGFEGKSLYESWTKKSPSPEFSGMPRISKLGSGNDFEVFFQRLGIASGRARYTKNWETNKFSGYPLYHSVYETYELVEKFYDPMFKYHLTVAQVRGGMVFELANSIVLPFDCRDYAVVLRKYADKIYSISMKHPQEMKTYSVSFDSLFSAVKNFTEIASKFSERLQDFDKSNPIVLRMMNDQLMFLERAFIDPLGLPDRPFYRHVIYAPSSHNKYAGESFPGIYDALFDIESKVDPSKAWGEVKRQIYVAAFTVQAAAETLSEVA

For the molecule `O=C(O)CCC(NC(=O)NC(CCC(=O)O)C(=O)O)C(=O)O` (stereo not shown) [DUPA, 2-[3-(1,3-dicarboxypropyl)-ureido] pentanedioic acid], at PSMA [1], the half-maximal inhibitory concentration (IC50) was 47 nM and the inhibition constant Ki was 8 nM.
Consider `NCC1CCN(c2nc(NCCCOCCOCCOCCCNC(=O)CCCCCCCNC(=O)CC[C@H](NC(=O)N[C@@H](CCC(=O)O)C(=O)O)C(=O)O)nc(N3CCN(c4nc(NCCCOCCOCCOCCCNc5nc(NCCCOCCOCCOCCCNC(=O)CCC(C(=O)O)N6CCN(CC(=O)O)CCN(CC(=O)O)CCN(CC(=O)O)CC6)nc(NCCCOCCOCCOCCCNc6nc(N7CCN(c8nc(NCCCOCCOCCOCCCNC(=O)CCCCCCCNC(=O)CC[C@H](NC(=O)N[C@@H](CCC(=O)O)C(=O)O)C(=O)O)nc(N9CCC(CN)CC9)n8)CC7)nc(N7CCN(c8nc(NCCCOCCOCCOCCCNC(=O)CCCCCCCNC(=O)CC[C@H](NC(=O)N[C@@H](CCC(=O)O)C(=O)O)C(=O)O)nc(N9CCC(CN)CC9)n8)CC7)n6)n5)nc(N5CCN(c6nc(NCCCOCCOCCOCCCNC(=O)CCCCCCCNC(=O)CC[C@H](NC(=O)N[C@@H](CCC(=O)O)C(=O)O)C(=O)O)nc(N7CCC(CN)CC7)n6)CC5)n4)CC3)n2)CC1` (stereo partly shown) [G1-(DUPA)4], for which, in the data set on PC3-PIP cells, the “highest (maximum) internalization” value is listed as 49%. Moreover, in data set [2], the “PC3-PIP to PC3-FLU cell uptake ratio” value was found to be 10. The serum stability entry in data set [3] is “stable in rat serum and remained intact over 24 h”. In data set [4], the dimensions result is given as “approximately 2 nm”. Moreover, the tissue uptake at 1 h came to 0.08 ± 0.03 %ID/g in data set [5] (In vivo organ uptake, Bone); 0.03 ± 0.01 %ID/g in data set [5] (In vivo organ uptake, Brain); 0.16 ± 0.05 %ID/g in data set [5] (In vivo organ uptake, Heart); 53.3 ± 4.37 %ID/g in data set [5] (setting [8]); 1.03 ± 0.16 %ID/g in data set [5] (In vivo organ uptake, Liver); 0.06 ± 0.03 %ID/g in data set [5] (In vivo organ uptake, Muscle). Also, the tissue uptake at 1 h in data set [5] (setting [9]) is 56.8 ± 5.14 %ID/g; in data set [5] (setting [10]) it was 0.18 ± 0.05 %ID/g; in data set [5] (setting [11]), 0.99 ± 0.36 %ID/g. Further, the tissue uptake at 4 h is 0.07 ± 0.01 %ID/g in data set [5] (In vivo organ uptake, Bone); 0.02 %ID/g in data set [5] (In vivo organ uptake, Brain); 0.1 ± 0.02 %ID/g in data set [5] (In vivo organ uptake, Heart); 58.7 ± 4.98 %ID/g in data set [5] (setting [8]); 1.2 ± 0.2 %ID/g in data set [5] (In vivo organ uptake, Liver); 0.05 ± 0.01 %ID/g in data set [5] (In vivo organ uptake, Muscle). In addition, the tissue uptake at 4 h in data set [5] (setting [9]) worked out at 60 ± 3.27 %ID/g; in data set [5] (setting [10]), 0.13 ± 0.02 %ID/g; in data set [5] (setting [11]), 0.87 ± 0.4 %ID/g. Moreover, the tissue uptake at 24 h in data set [5] (In vivo organ uptake, Bone, 24 h p.i.) was determined as 0.08 ± 0.02 %ID/g; in data set [5] (In vivo organ uptake, Brain, 24 h p.i.), 0.07 %ID/g; in data set [5] (In vivo organ uptake, Heart, 24 h p.i.), 0.25 ± 0.05 %ID/g; in data set [5] (In vivo organ uptake, Left Kidney, 24 h p.i.), 54 ± 5.96 %ID/g; in data set [5] (In vivo organ uptake, Liver, 24 h p.i.), 1.93 ± 0.15 %ID/g; in data set [5] (In vivo organ uptake, Muscle, 24 h p.i.) it was 0.13 ± 0.03 %ID/g. Further, the tissue uptake at 24 h was 55 ± 7.36 %ID/g in data set [5] (In vivo organ uptake, Right Kidney, 24 h p.i.); 0.33 ± 0.06 %ID/g in data set [5] (In vivo tumor uptake, PC3-FLU, PSMA negative xenograft right shoulder, 24 h p.i.); 0.81 ± 0.36 %ID/g in data set [5] (In vivo tumor uptake, PC3-PIP, PSMA positive xenograft left shoulder, 24 h p.i.); 45 to 55 %ID/g in data set [5] (level of kidney uptake, over 24 h p.i.). In data set [6], the “PC3-PIP to PC3-FLU uptake ratio (in vivo)” value turned out to be 6.7 ± 3.0. Also, in data set [6], the “PC3-PIP to muscle uptake ratio” value stood at 17.7 ± 5.5. The 50% inhibitory concentration (IC50) on PSMA [7] came out at 282 nM.
